What was measured:
293T cells = assay: Clonogenic survival assay after BimS transfection, 293T cells; format: cell-based, human; conditions: 293T cells
Method: Control 293T or IB5-expressing cells were incubated with or without 27 µg/ml TEPP-46 for 3 h, then transfected with BimS cDNA in a further 24-h incubation also including TEPP-46 or vehicle. The plates were fixed and stained with crystal violet after 1 week. The total area of colonies (a measure of the total mass of proliferating cells) formed in each well from were quantified using ImageJ software; mean±SEM are shown from 3 independent experiments.
(§1) Cell viability was measured with a Countess™ Automated Cell Counter (Invitrogen) using trypan blue. For the clonogenic survival assay, 293T or MEFs cells were seeded in 6-well plates at 1×10^5 cells/well in a 2-ml volume, transfected with BimS cDNA and incubated for 24 h. Afterwards, the medium was replaced and the cells cultured for 3-4 days. Thereafter, the plates were rinsed with PBS and fixed and stained with a solution containing crystal violet (0.5% w/v) and glutaraldehyde (6% v/v) as described (Franken et al., 2006).

MEFs = assay: BimS-resistant clonogenic survival in MEFs; format: cell-based, mouse
Method: The plates were fixed and stained with crystal violet after 1 week and the total area of colonies were counted as above. The SD and P value was calculated from 6 individual plates.
WT, Mfn1- or Mfn2-deficient MEFs were infected or not with IB5 lentivirus, then 1×10^5 cells were plated and transfected with BimS expression plasmid. The plates were fixed and stained with crystal violet after 1 week and the total areas of colonies were measured as above. Mean, SD and P values were calculated from 5 individual plates.
as §1

MDA-MB231 = assay: Clonogenic rescue from BimS-induced death, MDA-MB231; format: cell-based; conditions: parental MDA-MB231
Method: (§2) Control or IB5-expressing cells were transfected with BimS cDNA. The plates were fixed and stained with crystal violet after 12 days and the total areas of colonies were measured. Mean, SD and P values were calculated from 3 individual plates.

[1] = system: endogenous PKM2, Bim EL and L isoforms; assay: Expression of endogenous PKM2 and Bim isoforms in 293T cells; format: cell-based, human
PKM2 (K270M) = target: T1, PKM2 (K270M) (Homo sapiens, UniProt P14618, K270M); assay: Blue native gel electrophoresis, PKM2 (K270M); format: binding; conditions: not shown
T1 construct: His (N); made in house; host or cells: Escherichia coli BL21(DE3)
From the text: To begin to define the aspects of PKM2 function required for the IB5-induced anti-apoptotic effect, the present inventors reconstituted PKM2-null MEFs with WT or mutant forms of PKM2. The present inventors first analyzed the K270M mutation, reported to be catalytically dead (Bollenbach et al., 1999; Dombrauckas et al., 2005; Luo et al., 2011).

[2] = system: mitochondria isolated from 293T cells; assay: Mitochondria isolation and cytochrome c release assay (MOMP induced by cleaved Bid); format: cell-based, human; conditions: mitochondria from IB5-expressing 293T cells, 30 min at 37° C.
Method: Control (top) or Intrabody-expressing (bottom) 293T cells were collected and the mitochondrial fraction was isolated by differential centrifugation. To induce MOMP, recombinant cBid protein was added at the indicated concentrations. After incubation for 30 min at 37° C., samples were centrifuged, and cytochrome c (cyt c) content in mitochondrial pellet fractions was analyzed by immunoblot. A representative of three independent experiments is shown. Right panel: densitometric quantification of average cytochrome c content ±SEM from three independent experiments.
Mitochondria were isolated from 5×10^8 cells as described (Waterhouse et al., 2001). The freshly isolated mitochondria ([…]) were then incubated with recombinant cleaved Bid protein (Kuwana et al., 2002) at the indicated concentrations in the presence or absence of purified scFv #5. After incubation for 30 min at 37° C., mitochondria were collected by centrifugation at 10 000×g and analyzed by immunoblotting as described (Waterhouse et al., 2001).

U2OS cells = assay: Clonogenic rescue from BimS-induced death, U2OS; format: cell-based
MDA-MB231-LM2 = assay: Clonogenic rescue from BimS-induced death, MDA-MB231-LM2; format: cell-based; conditions: lung metastatic derivative MDA-MB231-LM2
Method: as §2

Bax = Bax (Homo sapiens, UniProt Q07812); assay: In vitro Bax/cBid membrane permeabilization in liposomes or Xenopus egg mitochondrial outer membrane vesicles; format: biochemical; conditions: recombinant scFv 5 added together with PKM2; not shown
From the text: Because no cytoprotective effect was seen when PKM2 was stimulated with allosteric activator TEPP-46 alone, or when PKM2 was replaced with the constitutively active PKIM1 (FIG. 3), the present inventors conclude that increased pyruvate kinase activity per se was insufficient for the cell survival effect induced by IB5. To test whether IB5:PIKM2 complexes could affect pro-apoptotic Bcl-2 family proteins directly, the present inventors used their own previously well-validated in vitro systems that recapitulate Bcl-2 family protein function in membranes. Here, recombinant Bax and cleaved Bid (cBid) proteins are incubated with protein-free liposomes or with isolated Xenopus egg mitochondrial outer membrane vesicles. Bax then becomes inserted into the membranes and forms large pores that recapitulate MOMP as it occurs within cells (Gillies et al., 2015; Kuwana et al., 2002; Kuwana et al., 2016; Schafer et al., 2009). The present inventors observed no effect of adding recombinant scFv 5 and PKIVI2 to these systems (not shown). Thus, the inventors saw no evidence that PKM2 acts directly on the process of Bax/Bak-mediated MOMP.

Bcl-2 family proteins = assay: Immunoblots of Bcl-2 family proteins; format: cell-based, human; conditions: alone or in combination; TEPP-46 27 μM
Method: Levels of several Bcl-2 family proteins were unchanged following IB5 expression or incubation with TEPP-46, or both. Cell lysates from 293T cells infected with and without IB5 and incubated with and without TEPP-46 (27 μM) were separated on SDS-12% polyacrylamide gels. Bcl-2 family proteins were detected by immunoblotting. The bands were quantified using ImageJ and normalized to the control cell lysate on the leftmost lane.
293T cells were washed with PBS and lysed with PBS containing 1% NP-40. Protein concentration was determined using Pierce™ BCA reagent (ThermoFisher; 23221, 23224). 35 μg protein was loaded in each lane of 12% SDS-PAGE gels. Proteins were transferred to nitrocellulose membrane and immunoblotted with the following primary antibodies: anti-Bax antibody (Santa Cruz N20), anti-Bak antibody (Cell Signaling 3814), anti-Bid antibody (R&D Systems AF860), anti-Bim antibody (Sigma B7929), anti-Puma antibody (Cell Signaling 4976), anti-Bcl-2 antibody (Abcam 32124), anti-Bcl-xL antibody (Cell Signaling 2764) and anti-Mcl-1 (Santa Cruz S19) at 1:1000 dilution. The secondary anti-rabbit and mouse antibodies, conjugated with HRP, were obtained from Santa Cruz and were used at 1:2000 dilution. The luminescence signal was detected using ECL reagent (ThermoFisher 32106).

Chain of Bax (Q07812 whole entry, species assumed): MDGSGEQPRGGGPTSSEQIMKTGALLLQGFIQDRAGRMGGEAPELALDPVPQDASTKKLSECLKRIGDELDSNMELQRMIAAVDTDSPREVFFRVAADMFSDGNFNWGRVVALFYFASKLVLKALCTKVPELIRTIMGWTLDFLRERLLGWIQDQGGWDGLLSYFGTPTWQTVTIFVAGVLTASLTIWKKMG
T1 sequence (P14618 whole entry K270M): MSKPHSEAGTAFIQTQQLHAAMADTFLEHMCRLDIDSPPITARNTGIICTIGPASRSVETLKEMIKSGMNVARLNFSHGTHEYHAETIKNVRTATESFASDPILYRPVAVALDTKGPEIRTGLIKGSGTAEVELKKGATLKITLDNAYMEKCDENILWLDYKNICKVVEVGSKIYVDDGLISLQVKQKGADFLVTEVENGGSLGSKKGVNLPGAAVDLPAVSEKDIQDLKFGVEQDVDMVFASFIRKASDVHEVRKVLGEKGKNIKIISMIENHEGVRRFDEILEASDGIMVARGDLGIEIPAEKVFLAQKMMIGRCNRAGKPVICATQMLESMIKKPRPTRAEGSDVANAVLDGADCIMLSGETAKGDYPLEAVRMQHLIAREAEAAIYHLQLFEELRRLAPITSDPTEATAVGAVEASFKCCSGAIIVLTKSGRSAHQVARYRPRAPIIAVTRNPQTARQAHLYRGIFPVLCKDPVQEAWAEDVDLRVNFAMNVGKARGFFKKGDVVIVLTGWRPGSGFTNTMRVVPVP

B1: IB5: intracellularly expressed single-chain antibody (scFv) specific for PKM2, SEQ ID NO: 2; also made as monovalent recombinant scFv in E. coli (protein)
scFv: MAQVQLVETGPGLVKPSETLSLRCTVSGGSFDNYYWNWIRQPPGKGLEYIGYVFPSTGATNYNPSLGSRVTISLDTSKNQFSLTLTSVTTADTAIYYCVRSGHDLWTGSTWFDPWGQWTTVTVSSGGGGSGGGGSGGGGSEIVLTQSPGTLSLSPGERATLSCRASQSVSSSYLAWYQQKPGQAPRLLIYGASSRATGIPDRFSGSGSGTDFTLTISRLEPEDIAVYYCQQRSNWPRTFGQGTKVEIKRGLGGLASVDYKDDDDK
modifications: artificial intrabody clone 5
notes: also made as monovalent recombinant scFv in E. coli
clonogenic survival despite BimS expression (293T cells): produced clonogenic survival
rescue from BimS-induced clonogenic death (MEFs; Mfn1-deficient MEFs): failed to rescue
rescue from BimS-induced death (clonogenic) (MEFs; Mfn2-null MEFs): rescued
rescue from BimS-induced death (clonogenic) (MEFs; WT MEFs): rescued
clonogenic survival (MEFs; early passage MEFs with PKM2 (K422R)): enhanced clonogenic survival
clonogenic survival (MEFs; later-passage MEFs with PKM2 (K422R)): further enhanced
rescue from BimS-induced cell death (MDA-MB231): failed to rescue
expression of endogenous Bim EL and L isoforms [1]: no effect
expression of endogenous PKM2 [1]: no effect
stable tetramer formation of PKM2 (K270M) (PKM2 (K270M)): prevented the protein from forming stable tetramers
resistance of mitochondria to MOMP induced by cleaved Bid protein [2]: reproducibly more resistant than control mitochondria to MOMP
protection from BimS-induced apoptosis (clonogenicity) (U2OS cells): substantially protected
rescue from BimS-induced cell death (MDA-MB231-LM2): failed to rescue
effect on Bax-mediated membrane pore formation (MOMP) in vitro (Bax): no effect
levels of Bax, Bak, Bid, Bim, Puma, Bcl-2, Bcl-xL and Mcl-1 (Bcl-2 family proteins): failed to change the mitochondrial levels

Source: patent publication US20200239597A1, “AN ANTI-APOPTOTIC FUNCTION OF PKM2 AND INTRACELLULARLY EXPRESSED SCFV ANTIBODIES” (La Jolla Institute for Allergy and Immunology, priority 2017, published 2020)
